± gives the uncertainty stated by the source.

The series in a line: amyloid nucleation score (Sup35N fusion, yeast selection) (log enrichment); library NNK3; higher = more nucleation; inactive = no reads after selection. The essentials:
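Psi-negative yeast expressed Sup35N fused to peptides of 20 random codons. They were induced 24 hours with 100 μM copper sulfate, grown 7 days at 30°C without adenine and uracil, and their plasmid inserts from input and output were Illumina-sequenced. The nucleation score is the DiMSum log enrichment of output over input reads, centred on the mode score of non-aggregating sequences. Sequences with under 100 input reads were excluded.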
In the case of VGSNSDSVCCSPVVAGFQWT, the amyloid nucleation score came to 1.07 ± 0.1.

Consider LSLWMGVEDFVLCGSVNTSR, for which the amyloid nucleation score result was “inactive”.

In the case of MYVLLHTSQVL, the amyloid nucleation score entry is “inactive”.

As to QVCYG, the amyloid nucleation score entry is “inactive”.

Turning to IRERGLYEMNPYWCRGRKSM, the amyloid nucleation score result is “inactive”.

In the case of ANPGG, the amyloid nucleation score is -1.05 ± 2.5.

SNDVKNVHP: the amyloid nucleation score result was “inactive”.

As for IFNMSEYNKLECTLTLY, the amyloid nucleation score result was “inactive”.

SCVPWICWNCQVPGL gave an amyloid nucleation score of 0.881 ± 0.18.

For HNLNIHYMISRVNAYTCTFI, the amyloid nucleation score was 2.5 ± 0.074.

Turning to FSIRDSTTLKVPEECLSTWI, the amyloid nucleation score entry is “inactive”.

With KNERVWVSRWETFKLHCSRV, the amyloid nucleation score entry was “inactive”.

For CLFVCDYGLFECGQMVVEVY, the amyloid nucleation score entry was “inactive”.

As to LRLVGLLMGNIFFELYGDLC, the amyloid nucleation score entry was “inactive”.

With MNGIGNYLDTYMGSCHVEDM, the amyloid nucleation score entry is “inactive”.

DICLSYIFLL: the amyloid nucleation score was 0.84 ± 0.17.

As for AGPVF, the amyloid nucleation score entry was “inactive”.

Regarding ISPCVPKSAWSIFRIAI, the amyloid nucleation score result was “inactive”.

Take TYMSNNTMGEFFLNLRVNLY: the amyloid nucleation score worked out at 2.44 ± 0.068.

For the substance HKLAKTNRSSIIVCGNRVLL, the amyloid nucleation score turned out to be 0.916 ± 0.11.

NVSRRGC: the amyloid nucleation score result is “inactive”.

SDRARRC registered an amyloid nucleation score of 0.163 ± 0.98.

For LTLITPPTRS, the amyloid nucleation score entry was “inactive”.

IRSDTVSTARPGNLTNC: the amyloid nucleation score result was “inactive”.

KVSDKPHHKRGVGLDLMMMD: the amyloid nucleation score entry is “inactive”.

Turning to WSFRVKTNRDDTEMLLSRSE, the amyloid nucleation score entry was “inactive”.

Consider IIDYRDQRVLESLRFYVLCS, for which the amyloid nucleation score entry was “inactive”.

As to VMQQYLYNLCCL, the amyloid nucleation score is 2.83 ± 0.052.

SCVAVSI: the amyloid nucleation score result is “inactive”.

As to GFNVTWFEIYGGLEDSWWFC, the amyloid nucleation score result is “inactive”.

For NFCLMLDVWINTFRDIIYWG, the amyloid nucleation score entry was “inactive”.

For the substance SDFHCTQKRNMVWEEIA, the amyloid nucleation score entry was “inactive”.

Turning to INVSLGHAGEGWVWLALHLR, the amyloid nucleation score entry is “inactive”.

As to VRYFSKSGGRNPNVGRVVPV, the amyloid nucleation score entry is “inactive”.

Turning to SRVNFM, the amyloid nucleation score result was “inactive”.

Take YTSGRSVSGRCHLWELKAIK: the amyloid nucleation score entry is “inactive”.

AKHGLVDAQRALGISYQKNK gave an amyloid nucleation score of 0.967 ± 0.11.

Take TNEIDLSEFMLQITLMLIRG: the amyloid nucleation score entry is “inactive”.

For YLINPVEVD, the amyloid nucleation score result was “inactive”.

Turning to NMYGYADYYRAFRDSN, the amyloid nucleation score entry is “inactive”.

In the case of YWNLIWWAKQWDVFTGEEAL, the amyloid nucleation score result is “inactive”.

SFYYILYTGCVIGIVASLFK: the amyloid nucleation score was -0.408 ± 0.58.

For NSRRCRNFASHRWPPEFRNS, the amyloid nucleation score entry was “inactive”.

For TKWVVASLVCKSAGKTGRVI, the amyloid nucleation score result is “inactive”.

On to GSSVVS, for which the amyloid nucleation score entry was “inactive”.

Take DQGLNC: the amyloid nucleation score result was “inactive”.

Regarding FMGQFIYLSSRCNSSVDSEV, the amyloid nucleation score result was “inactive”.

Take NDEMVY: the amyloid nucleation score result is “inactive”.

For the substance PTLYRQNGLLWLVDGEKLIR, the amyloid nucleation score entry was “inactive”.

On to GKYCLNDSCPFHY, for which the amyloid nucleation score result was “inactive”.

In the case of VWLHNFLVMKLSMRNFGWVR, the amyloid nucleation score result was “inactive”.

With EFPRGLGSR, the amyloid nucleation score is -0.236 ± 1.

As to LSKFFRWV, the amyloid nucleation score entry is “inactive”.

With SMSGWCVETFLRQEM, the amyloid nucleation score entry is “inactive”.

TYIVAEANVRSVGDEQSMMN: the amyloid nucleation score result is “inactive”.

HFFMLGLYTSACHLESNYDC: the amyloid nucleation score is 0.758 ± 0.1.

For QYCSGSLKFRGVPIFNGDDG, the amyloid nucleation score entry was “inactive”.

In the case of HCGWMAFFISLAPQFVYVLI, the amyloid nucleation score result is “inactive”.

Take FEVWRTGLCDRARGTVNRLK: the amyloid nucleation score result is “inactive”.

Consider TGVSIKFTSSKYYSVTSATT, for which the amyloid nucleation score result was “inactive”.

As to HKGAQPVKVKSGQSDTRPPS, the amyloid nucleation score entry is “inactive”.

Turning to RRKHHVISQVPERPLSWLAT, the amyloid nucleation score entry is “inactive”.

For the substance SNACCGWAICCSPCGGKGVS, the amyloid nucleation score turned out to be 1.45 ± 0.13.

As to LLRSQASTATGYH, the amyloid nucleation score entry was “inactive”.

Turning to MHFRTSDIPTTLELGLLGWP, the amyloid nucleation score is 0.096 ± 0.47.

For the substance ICAMAYADRTFSTSKGSK, the amyloid nucleation score result is “inactive”.

On to GGSEGQSVPAC, for which the amyloid nucleation score is -0.241 ± 1.5.

As for DTDWGRMWQGGSVYGYAFCA, the amyloid nucleation score result is “inactive”.

For the substance DHYAWIFTDRLWYCRCNTVT, the amyloid nucleation score result was “inactive”.

Consider RYFNGPYLGRTVFEFT, for which the amyloid nucleation score result is “inactive”.

With RLVLRDPTSTVIVRVPLGFV, the amyloid nucleation score was -0.547 ± 1.9.

For the substance THRVTTRCLLRLLRWIRM, the amyloid nucleation score result was “inactive”.

Consider VFKMACEWSALWWNLLHTYS, for which the amyloid nucleation score entry was “inactive”.

Turning to NDGFMDVVNTSGSNLCMARN, the amyloid nucleation score entry was “inactive”.

For the substance FRASVPPEVLPKFARVGMNA, the amyloid nucleation score entry is “inactive”.

Regarding FSVMYRWRYFGDSAFWISVF, the amyloid nucleation score result was “inactive”.

TSWRVFVGYWMG: the amyloid nucleation score result is “inactive”.

On to CVGSVPVMTKMVGDMGMASR, for which the amyloid nucleation score result is “inactive”.

For SVIVKAKASTVGDMQAKCRI, the amyloid nucleation score is 1.1 ± 0.15.

Regarding FRYVVHTESYTIESVEVIR, the amyloid nucleation score was 1.22 ± 0.094.

As to LAITLRLLFVNIIFTDPDLY, the amyloid nucleation score entry was “inactive”.

Regarding SIRNFVTSENTVLSDIKPWR, the amyloid nucleation score result was “inactive”.

Consider DDYYFG, for which the amyloid nucleation score result was “inactive”.

Regarding AIYKGSWEPFGIDA, the amyloid nucleation score entry is “inactive”.

For the substance VDVVLGMSIG, the amyloid nucleation score entry is “inactive”.

With MLCAL, the amyloid nucleation score entry was “inactive”.

Turning to TYTSVGETS, the amyloid nucleation score entry was “inactive”.

For APFCVRGSWELRQVFRM, the amyloid nucleation score was -0.13 ± 0.77.

For MNWLSTTGECSILDISQ, the amyloid nucleation score result is “inactive”.

For LCRYRNSYICSGNIIWMCSL, the amyloid nucleation score result was “inactive”.

DGQARISRYSTWLEEFLRCG: the amyloid nucleation score entry is “inactive”.

In the case of YIFFEWGINPHRGDYVFSFR, the amyloid nucleation score entry was “inactive”.

In turn, SLTGLVILMAYRDPPGLAQF gave an amyloid nucleation score of 1.46 ± 0.13.

In the case of HNLTNLVSILGNAS, the amyloid nucleation score result was “inactive”.

Take NSLSIVM: the amyloid nucleation score is -0.523 ± 1.1.

For the substance KDSRSCLSFL, the amyloid nucleation score entry was “inactive”.

Regarding NVLLYNRKGQFSKCLCKSVD, the amyloid nucleation score entry is “inactive”.

As to YRRAWRTIILKCTCLNQHV, the amyloid nucleation score stood at 0.2 ± 0.42.

RLMDITL: the amyloid nucleation score result was “inactive”.

In the case of IEPIECTMA, the amyloid nucleation score result is “inactive”.

For the substance ISLGCLYLFCYVTGCICSVG, the amyloid nucleation score turned out to be 1.49 ± 0.094.

In turn, GASLYWIP came in with an amyloid nucleation score of 0.234 ± 0.88.

Consider ILSSGLGKHTGLIIAYESAR, for which the amyloid nucleation score result is “inactive”.

LLRFP: the amyloid nucleation score result is “inactive”.

For NYKVRLNQDFENRHRYSMDT, the amyloid nucleation score entry was “inactive”.

As for GPSAGGFCQLRGVDVDV, the amyloid nucleation score entry is “inactive”.

On to WYRMLFIRSKDSMDKMPIFL, for which the amyloid nucleation score entry was “inactive”.

MFMVHQVDTERW: the amyloid nucleation score entry is “inactive”.

GKDSGDCTRIRLGV: the amyloid nucleation score stood at 1.2 ± 0.14.

CDFALCSRWQVVYVKKQGQW yielded an amyloid nucleation score of 2.1 ± 0.07.

With SVVEPRRTGTWNSTGVRSQH, the amyloid nucleation score entry is “inactive”.

With MLGWCYLMTTCE, the amyloid nucleation score result was “inactive”.

For YRVVC, the amyloid nucleation score was -0.543 ± 1.5.

As for ISWWAMCACSARKVRF, the amyloid nucleation score result was “inactive”.

Take SDLCRSMSNQFSELSSNDFV: the amyloid nucleation score result is “inactive”.

As for THRSRKSDPNRQSFIKCGHS, the amyloid nucleation score result is “inactive”.

Take NRQFSDSLYRRACAMKEDCL: the amyloid nucleation score was 0.643 ± 0.2.

In turn, DRTMLFVTCFNFRRSS displayed an amyloid nucleation score of 1.64 ± 0.078.

The substance TPKLAALFS had an amyloid nucleation score of -0.497 ± 1.3.

MSCSASSSGKAWFGGSPTWW registered an amyloid nucleation score of 0.674 ± 0.3.

For the substance SVKLKLGLCFPLYVSGFGLL, the amyloid nucleation score entry was “inactive”.

ILYWVYCSYSSNHDLYLFII: the amyloid nucleation score entry is “inactive”.

With DKIGDFNLYWHVKALLAYFY, the amyloid nucleation score result was “inactive”.

Take SSPYDCSVNYLKNVSPRTLY: the amyloid nucleation score result was “inactive”.

As for TLCSSGGMFHRSMDSITMS, the amyloid nucleation score entry was “inactive”.

As to PRYGEVGATSFSDVTETML, the amyloid nucleation score result is “inactive”.

SRSIMSVLACHRMCERGPIW returned an amyloid nucleation score of 0.827 ± 0.19.

In turn, HNWNRFTQSILWGTYNFFVG had an amyloid nucleation score of 2.26 ± 0.085.

HYGEFHKTNCARYRYFI: the amyloid nucleation score result is “inactive”.

On to LHFVVFAYYKRLMDSQIC, for which the amyloid nucleation score entry was “inactive”.

TVICISHTFSGHCLSSYEVW: the amyloid nucleation score result is “inactive”.

Turning to CGSWAYRY, the amyloid nucleation score turned out to be 0.435 ± 0.19.

For the substance YYRGITMCT, the amyloid nucleation score entry was “inactive”.

For the origin of these results see the supplement of paper PMC12042874.
